Positions count from the first letter of the chain named.
Assays:
[1] = target: T1, HA-SND1, full-length human, wild type (human, UniProt Q7KZF4 1-910); experiment: cell-based or functional assay
T1 sequence: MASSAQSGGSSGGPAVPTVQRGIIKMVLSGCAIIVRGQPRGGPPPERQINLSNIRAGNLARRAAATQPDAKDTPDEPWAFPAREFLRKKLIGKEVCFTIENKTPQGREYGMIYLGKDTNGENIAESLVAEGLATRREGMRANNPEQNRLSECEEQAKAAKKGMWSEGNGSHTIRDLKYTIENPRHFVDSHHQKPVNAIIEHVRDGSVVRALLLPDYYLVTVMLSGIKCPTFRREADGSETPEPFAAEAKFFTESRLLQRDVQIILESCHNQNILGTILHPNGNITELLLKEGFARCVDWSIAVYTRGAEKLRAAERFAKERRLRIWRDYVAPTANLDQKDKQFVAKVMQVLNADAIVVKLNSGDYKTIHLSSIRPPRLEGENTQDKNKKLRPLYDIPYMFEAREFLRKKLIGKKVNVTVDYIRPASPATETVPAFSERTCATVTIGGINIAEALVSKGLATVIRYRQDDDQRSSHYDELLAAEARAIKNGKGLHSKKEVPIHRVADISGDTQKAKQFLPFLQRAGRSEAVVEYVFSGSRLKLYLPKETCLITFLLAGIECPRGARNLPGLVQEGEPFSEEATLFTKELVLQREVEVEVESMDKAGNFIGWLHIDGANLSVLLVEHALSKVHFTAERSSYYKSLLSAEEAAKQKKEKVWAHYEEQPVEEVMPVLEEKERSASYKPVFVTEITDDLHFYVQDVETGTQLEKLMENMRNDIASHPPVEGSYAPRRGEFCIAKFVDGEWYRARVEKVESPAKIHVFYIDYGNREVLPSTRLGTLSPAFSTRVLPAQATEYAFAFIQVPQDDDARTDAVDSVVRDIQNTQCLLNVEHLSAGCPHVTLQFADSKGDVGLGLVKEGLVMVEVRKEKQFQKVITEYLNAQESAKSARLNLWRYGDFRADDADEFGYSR

[2] = target: T2, HA-SND1 F250A, full-length human (human, UniProt Q7KZF4 1-910); experiment: co-IP (anti-Myc) from HEK293T lysates, western blot
T2 construct: Full-length, HA-tagged
T2 sequence: T1 sequence with F250A

[3] = target: human AGO2 (ectopically expressed in HEK293T cells) (human, UniProt Q9UKV8 1-859); experiment: anti-Myc co-IP from HEK293T lysate (HA-SND1 and FLAG-AGO2 co-expressed), western blot
Source text: Two putative nuclear localization signals are residues 432-451 for NLS2 and residues 561-580 for NLS3. […] (FIG. 7B) Pulldown of His6-SND1ΔC by GST-tagged MTDH fragments with indicated boundaries. The bound proteins were examined by SDS-PAGE and visualized by Coomassie blue staining. […] For (FIG. 7B) and (FIG. 7C), 1/10 of the His6-SND1ΔC input was shown, and GST alone was used as a negative control. Representative results of 3 independent experiments are shown. (FIG. 7D, FIG. 7E) Lysates from HEK293T cells expressing the indicated ectopic human SND1, AGO2 or MTDH were immunoprecipitated with anti-Myc and immunoblotted with the indicated antibodies.
Immunoprecipitation and western blot For immunoprecipitation (IP) experiments, cultured cells were washed in cold PBS and lysed in lysis buffer (20 mM Tris pH 7.4, 0.15 M NaCl, 1 mM EDTA, 1 mM EGTA, 1% Tx-100, 0.0025 M Na2P2O7, 1 mM α-glycerolphosphate, 1 mM Na3VO4, and 1 mM NaF) with an EDTA-free protease inhibitor mixture (Roche Applied Science) and PMSF. Cell lysates were then incubated on ice for 10 min, centrifuged, and precleared by incubating with protein A/G beads (Santa Cruz Biotechnology) for 1 h at 4° C. For IP bead preparation, 30 μl of protein A/G beads were incubated with 5 μg of antibodies for 2 h at 4° C. […]

Chain of human AGO2 (ectopically expressed in HEK293T cells) (Q9UKV8 whole entry, the tested form may be a part): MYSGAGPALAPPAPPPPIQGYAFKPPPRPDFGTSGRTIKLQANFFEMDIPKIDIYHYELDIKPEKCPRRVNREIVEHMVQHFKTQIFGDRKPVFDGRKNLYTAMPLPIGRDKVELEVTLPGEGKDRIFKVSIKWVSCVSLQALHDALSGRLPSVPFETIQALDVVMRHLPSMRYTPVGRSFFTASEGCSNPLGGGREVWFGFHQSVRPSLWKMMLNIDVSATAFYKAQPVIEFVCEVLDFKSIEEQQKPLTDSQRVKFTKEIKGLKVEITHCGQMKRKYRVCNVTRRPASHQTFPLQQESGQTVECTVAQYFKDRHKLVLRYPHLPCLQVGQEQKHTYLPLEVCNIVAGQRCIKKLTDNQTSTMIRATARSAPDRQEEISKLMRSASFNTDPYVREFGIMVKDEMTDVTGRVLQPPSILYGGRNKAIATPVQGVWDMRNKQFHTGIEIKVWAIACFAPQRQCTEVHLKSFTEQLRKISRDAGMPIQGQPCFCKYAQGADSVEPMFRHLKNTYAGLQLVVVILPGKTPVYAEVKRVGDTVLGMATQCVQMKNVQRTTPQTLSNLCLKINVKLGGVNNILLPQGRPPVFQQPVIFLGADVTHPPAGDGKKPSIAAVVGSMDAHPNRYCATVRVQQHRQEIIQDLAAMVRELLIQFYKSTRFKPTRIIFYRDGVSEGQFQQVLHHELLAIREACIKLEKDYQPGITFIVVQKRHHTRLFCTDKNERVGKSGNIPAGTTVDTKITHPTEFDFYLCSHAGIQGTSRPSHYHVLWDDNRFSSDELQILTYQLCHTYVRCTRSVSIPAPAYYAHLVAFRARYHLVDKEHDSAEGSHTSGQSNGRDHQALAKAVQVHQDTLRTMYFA

B1: Myc-MTDH, full-length human, wild type (other)
chain: MAARSWQDELAQQAEEGSARLREMLSVGLGFLRTELGLDLGLEPKRYPGWVILVGTGALGLLLLFLLGYGWAAACAGSRKKRRSPPRKREEAAAVPAAAPDDLALLKNLRSEEQKKKNRKKLSEKPKPNGRTVEVAEGEAVRTPQSVTAKQPPEIDKKNEKSKKNKKKSKSDAKAVQNSSRHDGKEVDEGAWETKISHREKRQQRKRDKVLTDSGSLDSTIPGIENTITVTTEQLTTASFPVGSKKNKGDSHLNVQVSNFKSGKGDSTLQVSSGLNENLTVNGGGWNEKSVKLSSQISAGEEKWNSVSPASAGKRKAEPSAWSQDTGDANTNGKDWGRSWSDRSIFSGIGSTAEPVSQSTTSDYQWDVSRNQPYIDDEWSGLNGLSSADPNSDWNAPAEEWGNWVDEERASLLKSQEPIPDDQKVSDDDKEKGEGALPTGKSKKKKKKKKKQGEDNSTAQDTEELEKEIREDLPVNTSKTRPKQEKAFSLKTISTSDPAEVLVKNSQPIKTLPPATSTEPSVILSKSDSDKSSSQVPPILQETDKSKSNTKQNSVPPSQTKSETSWESPKQIKKKKKARRET
notes: Full-length, Myc-tagged; Expressed in HEK293T cells, tested in lysate; also called Myc-tagged MTDH; WT Myc-MTDH
half-life of HA-SND1 in HEK293T cells at 45° C (heat shock) [1]: > 3 h | binding result [2]: no binding | binding result [3]: binds

From patent publication US20190336574A1 (TRUSTEES OF PRINCETON UNIVERSITY, published 2019)
